Biological target: T1, B. subtilis DnaA (no tag) (B. subtilis, UniProt P05648 1-446)
T1 sequence (looked up): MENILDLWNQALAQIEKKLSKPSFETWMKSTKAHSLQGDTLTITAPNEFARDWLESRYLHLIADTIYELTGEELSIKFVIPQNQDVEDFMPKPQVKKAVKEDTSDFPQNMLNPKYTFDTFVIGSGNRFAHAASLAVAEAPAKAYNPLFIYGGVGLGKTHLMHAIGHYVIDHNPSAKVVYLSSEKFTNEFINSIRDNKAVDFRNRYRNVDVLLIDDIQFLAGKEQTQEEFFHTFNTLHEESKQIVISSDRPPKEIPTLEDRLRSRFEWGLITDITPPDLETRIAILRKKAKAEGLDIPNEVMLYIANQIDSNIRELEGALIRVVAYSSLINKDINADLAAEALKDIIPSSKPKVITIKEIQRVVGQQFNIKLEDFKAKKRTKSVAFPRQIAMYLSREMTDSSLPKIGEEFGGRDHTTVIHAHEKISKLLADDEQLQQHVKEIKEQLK
Test: native gel or EMSA

- binding result: binds
B1: his-YabA (recombinant YabA with a hexa-histidine tag at its N-terminus) (natural protein)
chain: not shown

From PMC3192265 (Molecular microbiology, 2011)
